In publication PMC4038516, “Crystal Structure of Penicillin-Binding Protein 3 (PBP3) from Escherichia coli” (PLoS ONE, 2014):

B1: PBP3_(88–165), Val88-Ser165 subdomain of Escherichia coli PBP3, strep-tag removed (domain or fragment, UniProt P0AD68 88-165, looked up)
chain: VKAIWADPKEVHDAGGISVGDRWKALANALNIPLDQLSARINANPKGRFIYLARQVNPDMADYIKKLKLPGIHLREES
notes: The tag is said to be removed before crystallization; Residues of the vector may remain at the N-terminus after the tag was removed; A selenomethionine form was used for phasing only; also called PBP3 Val88-Ser165 subdomain; source: E. coli C41(DE3) with pDML2042 (pET-52b(+)), purified (Strep-Tactin column), strep-tag removed; not shown: Strep-tag, N-terminal, cleaved
B2: PBP3_(57–577), soluble periplasmic form of Escherichia coli penicillin-binding protein 3 (domain or fragment, UniProt P0AD68 57-577, looked up)
chain: GDMRSLRVQQVSTSRGMITDRSGRPLAVSVPVKAIWADPKEVHDAGGISVGDRWKALANALNIPLDQLSARINANPKGRFIYLARQVNPDMADYIKKLKLPGIHLREESRRYYPSGEVTAHLIGFTNVDSQGIEGVEKSFDKWLTGQPGERIVRKDRYGRVIEDISSTDSQAAHNLALSIDERLQALVYRELNNAVAFNKAESGSAVLVDVNTGEVLAMANSPSYNPNNLSGTPKEAMRNRTITDVFEPGSTVKPMVVMTALQRGVVRENSVLNTIPYRINGHEIKDVARYSELTLTGVLQKSSNVGVSKLALAMPSSALVDTYSRFGLGKATNLGLVGERSGLYPQKQRWSDIERATFSFGYGLMVTPLQLARVYATIGSYGIYRPLSITKVDPPVPGERVFPESIVRTVVHMMESVALPGGGGVKAAIKGYRIAIKTGTAKKVGPDGRYINKYIAYTAGVAPASQPRFALVVVINDPQAGKYYGGAVSAPVFGAIMGGVLRTMNIEPDALTTGDKNEFV
notes: the ftsI gene encodes 588 residues and 11 C-terminal residues are removed by proteolytic cleavage; No tag is mentioned; also called FtsI; periplasmic domain of PBP3; source: E. coli W3110M (plasmid pDML232, with pDML237 for SecB), purified (S-Sepharose twice, Superdex 200)

Assays:
[1] = molecular target: the molecule itself; experiment: dynamic light scattering + other: static light scattering; PBP3_(88–165), batch mode, 20°C, buffer and concentration as for crystallogenesis (7.5 mg/ml, 0.15 M NaCl, 0.1 M Tris pH 8, 1 mM EDTA)
[2] = molecular target: the molecule itself; experiment: dynamic light scattering + other: static light scattering; PBP3_(57–577), batch mode, 20°C, buffer and concentration as for crystallogenesis (18 mg/ml, 0.5 M NaCl, 20 mM Tris pH 8)

Protein | stoichiometry N [1] | stoichiometry N [2]
B1 | 2 | 
B2 |  | 2
